Experimental data reported in the supplement of paper PMC10567573.
± gives the standard deviation.

Assay: protein stability index of a GFP-peptide fusion (GPS, HEK-293T) (PSI 1-6); higher = more stable
[1] = treatment: DMSO, c terminus: a fixed tail appended
[2] = treatment: MLN4924 1 uM, 8 h, c terminus: a fixed tail appended
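Further: 24-mer peptide tiles fused after GFP, lentivirally expressed, FACS-sorted into six equal bins by GFP/DsRed ratio, decoded by Illumina sequencing, PSI is the read-weighted mean bin number.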

Sequence	protein stability index [1]	protein stability index [2]	protein stability index (treatment: DMSO, c terminus: native)	protein stability index (treatment: MLN4924 1 uM, 8 h, c terminus: native)
IYQQLSRYRGLGLLASVPSNPNGN [CRY1]	2.4 ± 0.28	2.74 ± 0.29	–	–
IYVHILKDTRMAEEYCHKHYDRNK [VPS39]	2.19 ± 0.39	2 ± 0.28	–	–
KADTLKERYQKIGDTKRATPIEVL [CSNK1G3]	3.88 ± 0.18	4.01 ± 0.32	–	–
KAEILESVIKNYEDHFPLLFSEAS [MAGEA10]	3.06 ± 0.38	3.19 ± 0.51	–	–
KALGSDLDSSLASLVGNLGISGTT [SNAP91]	3.94 ± 0.2	3.93 ± 0.15	–	–
KDHSCKDNIREAFQIYDKEASGYV [EFHC1]	3.72 ± 0.31	3.81 ± 0.13	–	–
KDSYSSRDYPSSRDTRDYAPPPRD [RBMX]	4.08 ± 0.24	4.09 ± 0.6	–	–
KEDTLLLIAEVMGEDIPEKIKDEV [C8orf76]	4.35 ± 0.49	4.22 ± 0.38	–	–
KEFILTDEEVQRKREMILKRKEEE [VDR]	5.33 ± 0.23	5.38 ± 0.23	–	–
KELADFIRERATIEETYSKAMAKL [FCHO1]	3.16 ± 0.21	3.31 ± 0.29	–	–
KELEARVRKPAEAERYKLERLAEA [FLOT1]	4.88 ± 0.29	4.95 ± 0.16	–	–
KEQRKQMKGRGQLEKPPAPNQAMV [TBC1D10A]	4.95 ± 0.1	5.01 ± 0.34	–	–
KFLPSSEEDNDDAKILPSPVQGSS [DRICH1]	5.21 ± 0.25	5.47 ± 0.17	–	–
KFTNKEWETIRSFKDEWTQLDMFY [AASDHPPT]	2 ± 0.36	2.22 ± 0.23	–	–
KGRHHRGRGGEPRAYFMSDTREEK [CHGB]	4.93 ± 0.12	4.95 ± 0.096	–	–
KGTPASKLILGMPTYGRSFTLASS [CHIT1]	2.47 ± 0.28	2.54 ± 0.21	–	–
KGVQQKRPSEAQSVILRRYFLELT [DENND6A]	2.47 ± 0.098	2.57 ± 0.22	–	–
KGYPDGVKSIVVKGYNIWTGGPDA [TLE6]	2.68 ± 0.28	2.8 ± 0.49	–	–
KHFKVQLVDNVYCIGQRRFHTMDE [NCK2]	2.48 ± 0.16	2.44 ± 0.37	–	–
KINENVAAGMRFPLPEAIDPDVGV [PCDHGA10]	3.79 ± 0.081	4.26 ± 0.44	–	–
KKGLFLKHVEYEVSSQRFKSSVYR [SNX8]	2.38 ± 0.14	2.91 ± 0.28	–	–
KKKYMPYNHQHKYFFLIGPPALLP [FADS1]	3.14 ± 0.67	1.76 ± 0.053	–	–

Sequence	protein stability index [1]	protein stability index [2]	protein stability index (treatment: DMSO, c terminus: native)	protein stability index (treatment: MLN4924 1 uM, 8 h, c terminus: native)
KKVLNHGYDDDNHDYIVRSGERWL [DYRK1B]	3.27 ± 0.39	3.55 ± 0.49	–	–
KLERIARLEDKVKTLKAENAGLSS [JUNB]	3.85 ± 0.34	3.97 ± 0.22	–	–
KLKLTNNHLDPFGHIILNSMHKYQ [TBX5]	2.26 ± 0.37	2.34 ± 0.25	–	–
KLPLPSTLRSHLKSFSMAKGLNAR [RAB40A]	2.56 ± 0.18	2.68 ± 0.15	–	–
KLVVHDCPVWDIFDSDWYTSRNLI [RHOBTB3]	2.62 ± 0.43	2.66 ± 0.18	–	–
KMIGFPSSAGSVSPRSTSVTTTSS [KRT13]	4.4 ± 0.067	4.16 ± 0.096	–	–
KPAEYGYVSLGRLGAAKGALHPGC [CEBPB]	2.94 ± 0.11	3.06 ± 0.32	–	–
KPAFIGKTNLDGMITVQLPEVPAN [PTPRD]	3.77 ± 0.16	3.81 ± 0.19	–	–
KQQNVAHCMLVSNRVSWWGSTLAM [ZBED1]	2.19 ± 0.37	2.03 ± 0.31	–	–
KRCINLWKYALDMQQSNLDPLSPM [FEM1C]	2.33 ± 0.48	2.07 ± 0.38	–	–
KREEEALEERRLSRGEIPTLQRS [PKD2L1]	–	–	5.33 ± 0.22	5.23 ± 0.28
KRNKRNPIFQDSQDTEVFSWSDNE [FAM104B]	4.46 ± 0.21	4.58 ± 0.22	–	–
KRQVPTEQAQAYAERLGVTFFEVS [RAB40B]	2.99 ± 0.22	3.23 ± 0.23	–	–
KSKVVGDRENGSDNLPSSAGSGDK [TPD52L2]	5.39 ± 0.1	5.55 ± 0.16	–	–
KSLEGDLEDLKDQIAQLEASLAAA [LMNB1]	4.48 ± 0.23	4.23 ± 0.44	–	–
KSQDLAKIMADIRAQYDELARKNR [KRT18]	3.05 ± 0.41	3.29 ± 0.65	–	–
KTIEELRDKILTATIENNRVILEI [KRT13]	2.57 ± 0.46	2.71 ± 0.64	–	–
KVQTVIILGKVILWILHLLLECYI [TMEM192]	2.5 ± 0.62	2.35 ± 0.26	–	–
KYDPHTGHWTNVTPMATKRSGAGV [KLHL12]	3.69 ± 0.47	3.78 ± 0.17	–	–
KYLKPSGNMFPTIGDVHLAPFTDE [CARM1]	3.69 ± 0.1	3.61 ± 0.37	–	–
KYLKVPQDPLKFYKKIYFCHSCQL [IQUB]	2.24 ± 0.47	1.97 ± 0.2	–	–
LACRLTPDMETKLLFMTSRVRFGQ [INTS3]	2.2 ± 0.16	2.23 ± 0.22	–	–

Sequence	protein stability index [1]	protein stability index [2]	protein stability index (treatment: DMSO, c terminus: native)	protein stability index (treatment: MLN4924 1 uM, 8 h, c terminus: native)
LALGRERLGEIHTLPLPASLKAYL [SPSB1]	2.24 ± 0.38	2.15 ± 0.19	–	–
LAPAGQTSEESRPRLSQLSVTDVT [TNXB]	4.64 ± 0.68	5.13 ± 0.31	–	–
LASLPLKADTKGFCNISLFEDLPL [PLAGL1]	2.33 ± 0.19	2.43 ± 0.1	–	–
LASSLSPSQDERMRSPQNLHSQED [NOL4L]	5.37 ± 0.38	5.54 ± 0.12	–	–
LATTEKKTEQQRRREKAVHRLRVQ [NOP53]	4.34 ± 0.19	4.37 ± 0.17	–	–
LCEKEPLGNVLFSPICLSTSLSLA [SERPINB5]	2.13 ± 0.34	2.18 ± 0.34	–	–
LDDLSQKLKPLGEAEREFILNLKK [NLN]	3.36 ± 0.44	3.07 ± 0.22	–	–
LDGQLDFEEFVHYLQDHEKKLRLV [SLC25A25]	3.3 ± 0.68	2.98 ± 0.33	–	–
LDLSEEDSDDPSVTLELSQLSMLP [VDR]	4.62 ± 0.3	4.73 ± 0.26	–	–
LDNCVEVGRIANTYNLTEVDKYVN [KLHL13]	4.12 ± 0.17	3.94 ± 0.23	–	–
LDQPAFQQLVSFSESGSLGNSSGS [ISL2]	4.43 ± 0.13	4.56 ± 0.075	–	–
LEDLERELDEPQHEMVAHRHRQEV [ZSCAN9]	5.56 ± 0.12	5.47 ± 0.072	–	–
LEECLRLLEATCPFGENAEFPADI [NFE2L1]	3.61 ± 0.68	3.61 ± 0.23	–	–
LEEVAVQQTGDDDEVDDFEDFIFS [PBXIP1]	5.43 ± 0.36	5.41 ± 0.27	–	–
LEGFQAQGHPPSLFPPKAKSNQPK [ATE1]	5.16 ± 0.19	5.19 ± 0.18	–	–
LEHGADPTVKDLIGGFTALHYAAM [ASB7]	2.5 ± 0.45	2.54 ± 0.38	–	–
LEKCKTLVSQSNDLSSLRAKYPHD [SPACA9]	4.29 ± 0.16	4.4 ± 0.19	–	–
LELVINYQQLCIYWTKYYDFKNPI [OAS1]	3.22 ± 0.24	3.33 ± 0.18	–	–
LEPMKSRAPQLHLEYRFYEQLGSG [CSNK1G3]	2.91 ± 0.2	2.63 ± 0.47	–	–
LEPSTPYRFLLYGLHEGKRLGPLS [TNXB]	2.44 ± 0.3	2.46 ± 0.15	–	–
LERLAYLHARLRELLCELGRPSMV [PRAME]	2.42 ± 0.16	2.3 ± 0.33	–	–
